Consider one molecule from paper PMC6468243, “Mechanistic characterization of the DEAD-box RNA helicase Ded1 from yeast as revealed by a novel technique using single-molecule magnetic tweezers”.

The target of the data set is Ded1-His6 (Saccharomyces cerevisiae? (paper says …, UniProt P06634 1-604)). The data set can be described thus: competition (magnetic tweezers displacement assay); 1 mM ATP; 10 nM Ded1; against 200 nM 5'ss-11 bp RNA; effective competitor; Magnetic tweezers, Fhold 7 pN, 10 nM Ded1, 1 mM ATP, 200 nM 5'ss-11 bp RNA; buffer, salt, pH and temperature not in the material. Table 1 and Figures 4-6 (duplex displacement/unwinding kinetics) left out as enzyme activity without a direct binding read-out. The note with it: protein: recombinant; tags: His6 (pET22b); single strand.
Chain of Ded1-His6 (Saccharomyces cerevisiae? (P06634 whole entry): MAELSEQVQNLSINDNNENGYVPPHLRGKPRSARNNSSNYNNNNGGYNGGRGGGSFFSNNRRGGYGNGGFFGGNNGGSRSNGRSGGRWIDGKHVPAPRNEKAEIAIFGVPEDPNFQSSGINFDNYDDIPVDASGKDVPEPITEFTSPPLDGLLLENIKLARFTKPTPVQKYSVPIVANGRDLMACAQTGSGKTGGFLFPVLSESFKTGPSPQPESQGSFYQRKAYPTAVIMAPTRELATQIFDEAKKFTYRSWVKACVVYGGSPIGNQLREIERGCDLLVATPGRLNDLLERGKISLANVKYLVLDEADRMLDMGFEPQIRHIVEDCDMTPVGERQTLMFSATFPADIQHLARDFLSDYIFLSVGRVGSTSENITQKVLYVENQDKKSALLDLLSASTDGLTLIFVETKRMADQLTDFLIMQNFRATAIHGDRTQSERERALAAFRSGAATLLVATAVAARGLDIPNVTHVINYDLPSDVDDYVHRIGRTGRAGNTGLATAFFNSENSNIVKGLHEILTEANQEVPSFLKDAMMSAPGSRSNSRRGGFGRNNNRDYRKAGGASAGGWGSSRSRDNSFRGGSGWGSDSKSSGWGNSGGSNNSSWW

Turning to UCAUACUUUUCUUUUCUUUUCCAUC (ssRNA) [ssRNA01 (RNA01)], the binding result is “binds”.
